The subject of data set [1] is HeLa Kyoto. Nature of the data set: solubility in G1/S (NP-40 vs SDS abundance) (log2 ratio); higher = more soluble. Conditions: cell cycle stage: G1/S.
Data set [2] has as its system HeLa Kyoto. Nature of the data set: melting temperature (median over replicates), in situ; higher = more thermally stable.
Data set [3] has as its system HeLa Kyoto. Nature of the data set: solubility change mitosis vs G1/S (difference of NP-40 vs SDS log2 ratios) (log2 ratio difference); higher = more soluble in mitosis.
Data set [4] concerns HeLa Kyoto. Nature of the data set: thermal stability score vs G1/S (z-score of summed log2 fold changes over temperatures); higher = more thermally stable than in G1/S.
Setting [5] is: cell cycle stage: early G1 (4.5 h after nocodazole release).
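Throughout, for melting temperature (median over replicates), in situ: HeLa Kyoto cells synchronized by double thymidine or nocodazole block, proteins quantified by TMT10plex mass spectrometry, three independent biological replicates.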
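Throughout, for solubility change mitosis vs G1/S (difference of NP-40 vs SDS log2 ratios): synchronized HeLa Kyoto cells (double thymidine block for G1/S, nocodazole release for mitosis), protein amounts in NP-40 versus SDS lysates quantified by mass spectrometry, three biological replicates.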
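Throughout, for solubility in G1/S (NP-40 vs SDS abundance): HeLa Kyoto cells arrested at G1/S by double thymidine block, proteins quantified by TMT10plex mass spectrometry in mild NP-40 versus SDS extracts, three biological replicates.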
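Throughout, for thermal stability score vs G1/S (z-score of summed log2 fold changes over temperatures): synchronized HeLa Kyoto cells, proteins quantified by TMT10plex mass spectrometry, three biological replicates, mitosis taken 0.5 h after nocodazole release, G1/S directly after double thymidine block.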

For “MERQKRKADIEKGLQFIQSTLPLKQEEYEAFLLKLVQNLFAEGNDLFREKDYKQALVQYMEGLNVADYAASDQVALPRELLCKLHVNRAACYFTMGLYEKALEDSEKALGLDSESIRALFRKARALNELGRHKEAYECSSRCSLALPHDESVTQLGQELAQKLGLRVRKAYKRPQELETFSLLSNGTAAGVADQGTSNGLGSIDDIETDCYVDPRGSPALLPSTPTMPLFPHVLDLLAPLDSSRTLPSTDSLDDFSDGDVFGPELDTLLDSLSLVQGGLSGSGVPSELPQLIPVFPGGTPLLPPVVGGSIPVSSPLPPASFGLVMDPSKKLAASVLDALDPPGPTLDPLDLLPYSETRLDALDSFGSTRGSLDKPDSFMEETNSQDHRPPSGAQKPAPSPEPCMPNTALLIKNPLAATHEFKQACQLCYPKTGPRAGDYTYREGLEHKCKRDILLGRLRSSEDQTWKRIRPRPTKTSFVGSYYLCKDMINKQDCKYGDNCTFAYHQEEIDVWTEERKGTLNRDLLFDPLGGVKRGSLTIAKLLKEHQGIFTFLCEICFDSKPRIISKGTKDSPSVCSNLAAKHSFYNNKCLVHIVRSTSLKYSKIRQFQEHFQFDVCRHEVRYGCLREDSCHFAHSFIELKVWLLQQYSGMTHEDIVQESKKYWQQMEAHAGKASSSMGAPRTHGPSTFDLQMKFVCGQCWRNGQVVEPDKDLKYCSAKARHCWTKERRVLLVMSKAKRKWVSVRPLPSIRNFPQQYDLCIHAQNGRKCQYVGNCSFAHSPEERDMWTFMKENKILDMQQTYDMWLKKHNPGKPGEGTPISSREGEKQIQMPTDYADIMMGYHCWLCGKNSNSKKQWQQHIQSEKHKEKVFTSDSDASGWAFRFPMGEFRLCDRLQKGKACPDGDKCRCAHGQEELNEWLDRREVLKQKLAKARKDMLLCPRDDDFGKYNFLLQEDGDLAGATPEAPAAAATATTGE [ZC3H7B]”, the “solubility in G1/S (log2)” value with HeLa Kyoto [1] was -0.354. Besides, the melting temperature was 48 °C with HeLa Kyoto [2] (cell cycle stage: G1/S) and 47.6 °C in the data set with HeLa Kyoto [2] (cell cycle stage: mitosis). The “solubility change mitosis (log2)” value with HeLa Kyoto [3] was found to be 0.118. Moreover, the thermal stability score in the data set with HeLa Kyoto [4] (setting [5]) came to 1.16; in the data set with HeLa Kyoto [4] (cell cycle stage: mitosis), 1.26.

For “MERREEQPGAAGAGAAPALDFTVENVEKALHQLYYDPNIENKNLAQKWLMQAQVSPQAWHFSWQLLQPDKVPEIQYFGASALHIKISRYWSDIPTDQYESLKAQLFTQITRFASGSKIVLTRLCVALASLALSMMPDAWPCAVADMVRLFQAEDSPVDGQGRCLALLELLTVLPEEFQTSRLPQYRKGLVRTSLAVECGAVFPLLEQLLQQPSSPSCVRQKVLKCFSSWVQLEVPLQDCEALIQAAFAALQDSELFDSSVEAIVNAISQPDAQRYVNTLLKLIPLVLGLQEQLRQAVQNGDMETSHGICRIAVALGENHSRALLDQVEHWQSFLALVNMIMFCTGIPGHYPVNETTSSLTLTFWYTLQDDILSFEAEKQAVYQQVYRPVYFQLVDVLLHKAQFPSDEEYGFWSSDEKEQFRIYRVDISDTLMYVYEMLGAELLSNLYDKLGRLLTSSEEPYSWQHTEALLYGFQSIAETIDVNYSDVVPGLIGLIPRISISNVQLADTVMFTIGALSEWLADHPVMINSVLPLVLHALGNPELSVSSVSTLKKICRECKYDLPPYAANIVAVSQDVLMKQIHKTSQCMWLMQALGFLLSALQVEEILKNLHSLISPYIQQLEKLAEEIPNPSNKLAIVHILGLLSNLFTTLDISHHEDDHEGPELRKLPVPQGPNPVVVVLQQVFQLIQKVLSKWLNDAQVVEAVCAIFEKSVKTLLDDFAPMVPQLCEMLGRMYSTIPQASALDLTRQLVHIFAHEPAHFPPIEALFLLVTSVTLTLFQQGPRDHPDIVDSFMQLLAQALKRKPDLFLCERLDVKAVFQCAVLALKFPEAPTVKASCGFFTELLPRCGEVESVGKVVQEDGRMLLIAVLEAIGGQASRSLMDCFADILFALNKHCFSLLSMWIKEALQPPGFPSARLSPEQKDTFSQQILRERVNKRRVKEMVKEFTLLCRGLHGTDYTADY [IPO13]”, the “solubility in G1/S (log2)” value in the data set with HeLa Kyoto [1] was -0.335. For the same sequence, the figures for the melting temperature in the data set on HeLa Kyoto [2] (cell cycle stage: G1/S) and in the data set with HeLa Kyoto [2] (cell cycle stage: mitosis) were 51.2 °C and 51 °C, respectively. Besides, the “solubility change mitosis (log2)” value in the data set with HeLa Kyoto [3] is -0.175. The thermal stability score in the data set on HeLa Kyoto [4] (setting [5]) is -0.535; with HeLa Kyoto [4] (cell cycle stage: mitosis) it was -0.562.

For “MESAIAEGGASRFSASSGGGGSRGAPQHYPKTAGNSEFLGKTPGQNAQKWIPARSTRRDDNSAANNSANEKERHDAIFRKVRGILNKLTPEKFDKLCLELLNVGVESKLILKGVILLIVDKALEEPKYSSLYAQLCLRLAEDAPNFDGPAAEGQPGQKQSTTFRRLLISKLQDEFENRTRNVDVYDKRENPLLPEEEEQRAIAKIKMLGNIKFIGELGKLDLIHESILHKCIKTLLEKKKRVQLKDMGEDLECLCQIMRTVGPRLDHERAKSLMDQYFARMCSLMLSKELPARIRFLLQDTVELREHHWVPRKAFLDNGPKTINQIRQDAVKDLGVFIPAPMAQGMRSDFFLEGPFMPPRMKMDRDPLGGLADMFGQMPGSGIGTGPGVIQDRFSPTMGRHRSNQLFNGHGGHIMPPTQSQFGEMGGKFMKSQGLSQLYHNQSQGLLSQLQGQSKDMPPRFSKKGQLNADEISLRPAQSFLMNKNQVPKLQPQITMIPPSAQPPRTQTPPLGQTPQLGLKTNPPLIQEKPAKTSKKPPPSKEELLKLTETVVTEYLNSGNANEAVNGVREMRAPKHFLPEMLSKVIILSLDRSDEDKEKASSLISLLKQEGIATSDNFMQAFLNVLDQCPKLEVDIPLVKSYLAQFAARAIISELVSISELAQPLESGTHFPLFLLCLQQLAKLQDREWLTELFQQSKVNMQKMLPEIDQNKDRMLEILEGKGLSFLFPLLKLEKELLKQIKLDPSPQTIYKWIKDNISPKLHVDKGFVNILMTSFLQYISSEVNPPSDETDSSSAPSKEQLEQEKQLLLSFKPVMQKFLHDHVDLQVSALYALQVHCYNSNFPKGMLLRFFVHFYDMEIIEEEAFLAWKEDITQEFPGKGKALFQVNQWLTWLETAEEEESEEEAD [EIF4G2]”, the “solubility in G1/S (log2)” value in the data set with HeLa Kyoto [1] stood at 0.402. Besides, the melting temperature in the data set on HeLa Kyoto [2] (cell cycle stage: G1/S) stood at 48.4 °C; with HeLa Kyoto [2] (cell cycle stage: mitosis) it was 48.3 °C. Besides, the “solubility change mitosis (log2)” value with HeLa Kyoto [3] was 0.0198. The thermal stability score in the data set on HeLa Kyoto [4] (setting [5]) is 1.01; in the data set on HeLa Kyoto [4] (cell cycle stage: mitosis) it was 3.88.

“MESEDLSGRELTIDSIMNKVRDIKNKFKNEDLTDELSLNKISADTTDNSGTVNQIMMMANNPEDWLSLLLKLEKNSVPLSDALLNKLIGRYSQAIEALPPDKYGQNESFARIQVRFAELKAIQEPDDARDYFQMARANCKKFAFVHISFAQFELSQGNVKKSKQLLQKAVERGAVPLEMLEIALRNLNLQKKQLLSEEEKKNLSASTVLTAQESFSGSLGHLQNRNNSCDSRGQTTKARFLYGENMPPQDAEIGYRNSLRQTNKTKQSCPFGRVPVNLLNSPDCDVKTDDSVVPCFMKRQTSRSECRDLVVPGSKPSGNDSCELRNLKSVQNSHFKEPLVSDEKSSELIITDSITLKNKTESSLLAKLEETKEYQEPEVPESNQKQWQSKRKSECINQNPAASSNHWQIPELARKVNTEQKHTTFEQPVFSVSKQSPPISTSKWFDPKSICKTPSSNTLDDYMSCFRTPVVKNDFPPACQLSTPYGQPACFQQQQHQILATPLQNLQVLASSSANECISVKGRIYSILKQIGSGGSSKVFQVLNEKKQIYAIKYVNLEEADNQTLDSYRNEIAYLNKLQQHSDKIIRLYDYEITDQYIYMVMECGNIDLNSWLKKKKSIDPWERKSYWKNMLEAVHTIHQHGIVHSDLKPANFLIVDGMLKLIDFGIANQMQPDTTSVVKDSQVGTVNYMPPEAIKDMSSSRENGKSKSKISPKSDVWSLGCILYYMTYGKTPFQQIINQISKLHAIIDPNHEIEFPDIPEKDLQDVLKCCLKRDPKQRISIPELLAHPYVQIQTHPVNQMAKGTTEEMKYVLGQLVGLNSPNSILKAAKTLYEHYSGGESHNSSSSKTFEKKRGKK”: the “solubility in G1/S (log2)” value in the data set on HeLa Kyoto [1] was 0.176. Also, the melting temperature in the data set with HeLa Kyoto [2] (cell cycle stage: G1/S) was found to be 46.8 °C; in the data set on HeLa Kyoto [2] (cell cycle stage: mitosis) it was 48.1 °C. In addition, the “solubility change mitosis (log2)” value in the data set with HeLa Kyoto [3] was 0.0511. For the same sequence, the thermal stability score in the data set on HeLa Kyoto [4] (setting [5]) stood at 0.873; in the data set with HeLa Kyoto [4] (cell cycle stage: mitosis) it was 3.46.

Take “MESESESGAAADTPPLETLSFHGDEEIIEVVELDPGPPDPDDLAQEMEDVDFEEEEEEEGNEEGWVLEPQEGVVGSMEGPDDSEVTFALHSASVFCVSLDPKTNTLAVTGGEDDKAFVWRLSDGELLFECAGHKDSVTCAGFSHDSTLVATGDMSGLLKVWQVDTKEEVWSFEAGDLEWMEWHPRAPVLLAGTADGNTWMWKVPNGDCKTFQGPNCPATCGRVLPDGKRAVVGYEDGTIRIWDLKQGSPIHVLKGTEGHQGPLTCVAANQDGSLILTGSVDCQAKLVSATTGKVVGVFRPETVASQPSLGEGEESESNSVESLGFCSVMPLAAVGYLDGTLAIYDLATQTLRHQCQHQSGIVQLLWEAGTAVVYTCSLDGIVRLWDARTGRLLTDYRGHTAEILDFALSKDASLVVTTSGDHKAKVFCVQRPDR [AAMP]”: the “solubility in G1/S (log2)” value with HeLa Kyoto [1] was -0.15. The melting temperature in the data set with HeLa Kyoto [2] (cell cycle stage: G1/S) stood at 51.3 °C; in the data set with HeLa Kyoto [2] (cell cycle stage: mitosis), 51.6 °C. Also, in the data set on HeLa Kyoto [3], the “solubility change mitosis (log2)” value was -0.112. Further, the thermal stability score in the data set on HeLa Kyoto [4] (setting [5]) was -1.15; in the data set on HeLa Kyoto [4] (cell cycle stage: mitosis), -3.66.

Turning to “MESGFTSKDTYLSHFNPRDYLEKYYKFGSRHSAESQILKHLLKNLFKIFCLDGVKGDLLIDIGSGPTIYQLLSACESFKEIVVTDYSDQNLQELEKWLKKEPEAFDWSPVVTYVCDLEGNRVKGPEKEEKLRQAVKQVLKCDVTQSQPLGAVPLPPADCVLSTLCLDAACPDLPTYCRALRNLGSLLKPGGFLVIMDALKSSYYMIGEQKFSSLPLGREAVEAAVKEAGYTIEWFEVISQSYSSTMANNEGLFSLVARKLSRPL [NNMT]”, in the data set on HeLa Kyoto [1], the “solubility in G1/S (log2)” value came to 0.584. Besides, the melting temperature with HeLa Kyoto [2] (cell cycle stage: G1/S) is 53.4 °C; in the data set on HeLa Kyoto [2] (cell cycle stage: mitosis), 53.7 °C. For the same sequence, the “solubility change mitosis (log2)” value with HeLa Kyoto [3] is -0.0166. Moreover, the thermal stability score in the data set with HeLa Kyoto [4] (setting [5]) was 3.88; with HeLa Kyoto [4] (cell cycle stage: mitosis) it was 4.37.

The values above are taken from the supplement of paper PMC5998384.
